Measurements published in patent publication US20110104167A1, “Compositions and Methods for Diagnosing and Treating Insulin Resistance” (YEDA RESEARCH AND DEVELOPMENT CO. LTD., priority 2004, published 2011).
Positions count from the first letter of the chain named. Names may count otherwise.

Key:
Fao cells = test: Effect of inducers of insulin resistance on insulin-stimulated Tyr phosphorylation of IRS-1 in Fao cells; type: cell-based, rat
Procedure: FIGS. 5a-c show the effects of TPA and anisomycin on insulin-induced Tyr phosphorylation of IRS-1^7A in Fao cells. Fao cells were infected with Ad-Myc-IRS-1^WT or Ad-Myc-IRS-1^7A at 7×10^7 PFU/ml. Following 48 hours the cells were deprived of serum for 16 h, and were then treated for 60 min with 200 nM TPA (FIG. 5a); 50 ng/ml of anisomycin (FIG. 5b) or 1 μg/ml of anisomycin (FIG. 5c). This was followed by treatment with 100 nM insulin for 2 min (FIG. 5a) or for the indicated times (FIGS. 5b-c). Cell extracts were prepared, and samples (1 mg) were subjected to immunoprecipitation (IP) with anti-Myc antibodies (FIG. 5a). Immunocomplexes were resolved on 7.5 SDS-PAGE and were immunoblotted with the indicated antibodies. Alternatively, total cell extracts (FIGS. 5b-c) were resolved on 7.5% SDS-PAGE and immunoblotted with the indicated antibodies. Results of a representative of four experiments are presented. The results of two independent experiments done in duplicates were quantified (FIG. 5a, right panel).
FIGS. 6a-b show the dose dependent effect of Palmitic acid on Insulin-induced Tyr phosphorylation of IRS-1 mutants in Fao cells. Fao cells were infected with Ad-Myc-IRS-1^WT or Ad-Myc-IRS-1^7A at 7×10^7 PFU/ml. Following 24 hours the cells were deprived of serum for 12 h, and were then further incubated for 12 h with or without the indicated concentrations of palmitic acid in serum free medium prior to being stimulated with 100 nM insulin for the indicated times. Cell extracts (100 μg) were resolved on 7.5% SDS-PAGE and immunoblotted with anti-PY and anti-Myc antibodies. The results of two independent experiments done in duplicates were quantified.
FIGS. 11a-c show the effects of TPA and anisomycin on insulin-stimulated Tyr phosphorylation of IRS-1^WT, IRS-1^7A and IRS-1^408A. Fao cells were infected with Adeno-myc-IRS-1 wild type (WT); the 7A mutant; or the S408A mutant at a titer of 4-6×10^7 PFU/ml. Following 48 hours the cells were deprived of serum for 16 h, and were then treated for 60 min with 200 nM TPA (FIG. 11a), or 50 ng/ml anisomycin (FIG. 11b), followed by treatment with 100 nM insulin for the indicated times. Cell extracts were prepared, samples (1 mg) were subjected to immunoprecipitation (IP) with anti-Myc antibodies. Immunocomplexes were resolved on 7.5% SDS-PAGE and immunoblotted with anti-PY or anti IRS-1 antibodies.
Infection of Fao cells with adenovirus—Fao cells were grown in RPMI medium containing 10% FCS. At 70% confluence cells were infected with adenoviruses harboring the gene of interest at a titer of 7 10^7 PFU/ml. After incubation for 2 h hours at 37° C., the virus-containing medium was diluted 1:5 in fresh RPMI medium. After 24 h the medium was replaced with a fresh RPMI medium containing 10% FCS. […]

CHO-T cells = test: Phosphorylation (mobility shift) of truncated IRS-1 PH/PTB constructs in CHO-T cells; type: cell-based, Chinese Hamster; conditions: for effect of inhibitor pretreatment on the mobility shift of PH/PTB-L induced by chronic insulin: 30 min inhibitor, then 100 nM insulin 30 min
Procedure: FIGS. 7a-c show In vivo phosphorylation of PH/PTB-L in response to insulin. CHO-T cells were transiently transfected with pcDNA3-Myc-PH/PTB (1-1290 nt) or with an insert-free plasmid (control). Twenty-four hours post-transfection, the cells were deprived of serum for 16 h and were then treated with insulin for the indicated time periods. Cell extracts (100 μg) were resolved on 10% SDS-PAGE and immunoblotted with anti-pY or anti-Myc antibodies (FIG. 7a). In parallel, samples (100 μg, 40 μl) were incubated with 3 units (U) of calf intestine phosphatase (CIP) at 37° C. for 1 h. The samples were resolved on 10% SDS-PAGE and immunoblotted with anti-Myc antibodies (FIG. 7b). The results are of a representative of two experiments. FIG. 7c—CHO^PH/PTB-L cells were starved in serum-free F12 medium for 16 h. The cells were treated for 30 min with the indicated inhibitors prior to being treated with 100 nM insulin for 30 min. Cell extracts were prepared, samples were resolved on 10% SDS-PAGE and were immunoblotted with anti-Myc antibodies. Results are of a representative of three experiments.
FIGS. 8a-b show the effects of insulin on Serine phosphorylation of Myc-PH/PTB-L^7A CHO-T cells were transiently transfected with constructs encoding Myc-PH/PTB-L (1-1290 nt), either wild type (WT) or the 7A mutant (FIG. 8a). Alternatively, the cells were transfected or with the constructs encoding Myc-PH/PTB-L (1-1290 nt; 1-430 aa) or Myc-PH/PTB-S (1-1095 nt; 1-365 aa, FIG. 8b). Following 24 hours in culture, the cells were incubated in serum-free F12 medium for 16 ch prior to being treated with insulin for the indicated times. Cell extracts were resolved on 10% SDS-PAGE and immunoblotted with anti-Myc antibodies. Results are of a representative of three experiments.
FIGS. 9a-b show the effects of insulin and calyculin A on Ser phosphorylation of PH/PTB-L mutants. FIG. 9a—CHO-T cells were transiently transfected with constructs expressing either Myc-PH/PTB^WT or the following PH/PTB mutants: S336A, S407A, S408A, S407/8A and S3A (S336/407/408A). Following 24 hours the cells were deprived of serum for 16 h, and were treated with insulin for the indicated times. Cell extracts were resolved on 10% SDS-PAGE and immunoblotted with anti-Myc antibodies. The results are of a representative of two-three experiments. FIG. 9b—CHO-T cells were transiently transfected with pcDNA3-myc-PH/PTB^WT or pcDNA3-myc-PH/PTB^S408A. Following 24 hours the cells were starved for 16 h and were then treated either with 100 nM insulin for 30 min or with 25 nM calyculin A for 60 min. Cell extracts were resolved on 10% SDS-PAGE and were immunoblotted with anti-Myc antibodies. Results are of a representative of two experiments.
Plasmids construction—i. Myc-tagged-IRS-1 The cDNA, encoding for the mouse IRS-1 in the pCNA-3 expression plasmid (35) was digested with Hind III and BspE-1. This deleted a 9 by fragment from the 5′-IRS-1 cDNA that was replaced by a double stranded synthetic oligonucleotide encoding the Myc tag and the missing amino-acids of IRS-1 (bold) […] (SEQ ID NO. 9). ii. Myc-tagged truncated IRS-1 (aa 1-430, PH/PTB-L) Myc-tagged mouse IRS-1 cDNA (N-terminus, 1-1290 nt), encoding for the first 430 aa of IRS-1, was PCR-amplified with the following primers. 5′-CAGGATCCGCATATGGAACAAAAGCTC-3′ (sense) (SEQ ID NO. 10); 5′-GAGAATTCATCAGGGACTAGAACCATA-3′ (anti-sense) (SEQ ID NO. 11), using as a template the pcDNA3-Myc-IRS-1 plasmid. The PCR product was ligated into a pGEM-T. The insert was excised from pGEM-T with BamH I and EcoR I (italic), and then was ligated into pcDNA3 at the same restriction sites to generate pcDNA3-Myc-IRS-1^PH/PTB-L. iii. Myc-tagged truncated IRS-1 (aa 1-365, PH/PTB-S) Myc-tagged mouse IRS-1 cDNA (N-terminus, 1-1095 nt), encoding for the first 365 aa of IRS-1, was PCR-amplified with the following primers: 5′ […]-3′ (sense) (SEQ ID NO. 12); 5′ […] 3′ (anti sense) (SEQ ID NO. 13) using as a template the pcDNA3-Myc-IRS-1. […]

CCCCCCCCCCCCCCCC(=O)O [FFA, Palmitic acid]
reduction in insulin-stimulated Tyr phosphorylation of IRS-1^WT by FFA pre-treatment (Fao cells; FFA 0.5-0.75 mM): ~35%

COc1cccc(-c2cc(=O)c3ccccc3o2)c1N [PD98059]
effect of inhibitor pretreatment on the mobility shift of PH/PTB-L induced by chronic insulin (CHO-T cells): ineffective

C[S+]([O-])c1ccc(-c2nc(-c3ccncc3)c(-c3ccc(F)cc3)[nH]2)cc1 (stereo not drawn) [SB203580]
effect of inhibitor pretreatment on the mobility shift of PH/PTB-L induced by chronic insulin (CHO-T cells): ineffective

CCCCCCCCCCCCCC(=O)O[C@@H]1[C@@H](C)[C@@]2(O)[C@@H](C=C(CO)C[C@]3(O)C(=O)C(C)=C[C@@H]23)[C@@H]2C(C)(C)[C@]12OC(C)=O [TPA, phorbol 12-myristate 13-acetate]
inhibition of insulin-stimulated Tyr phosphorylation of Myc-IRS-1^WT by TPA pretreatment (Fao cells; 200 nM TPA 60 min, then 100 nM insulin 2 min): ~40%

B1: PH/PTB-S: Myc-tagged truncated mouse IRS-1 (aa 1-365), lacks S407 and S408 (protein, UniProt P35569 1-365, looked up, fragment)
chain: MASPPDTDGFSDVRKVGYLRKPKSMHKRFFVLRAASEAGGPARLEYYENEKKWRHKSSAPKRSIPLESCFNINKRADSKNKHLVALYTRDEHFAIAADSEAEQDSWYQALLQLHNRAKAHHDGAGGGCGGSCSGSSGVGEAGEDLSYDTGPGPAFKEVWQVILKPKGLGQTKNLIGIYRLCLTSKTISFVKLNSEAAAVVLQLMNIRRCGHSENFFFIEVGRSAVTGPGEFWMQVDDSVVAQNMHETILEAMRAMSDEFRPRSKSQSSSSCSNPISVPLRRHHLNNPPPSQVGLTRRSRTESITATSPASMVGGKPGSFRVRASSDGEGTMSRPASVDGSPVSPSTNRTHAHRHRGSSRLHPPLN
modifications: Myc tag
notes: Myc-tagged truncated mouse IRS-1 (aa 1-365), lacks S407 and S408
mobility shift (Ser phosphorylation) following prolonged insulin treatment (CHO-T cells; CHO-T cells, prolonged insulin): no decrease in its mobility

B2: PH/PTB-L^S336A: PH/PTB-L with Ser336 mutated to Ala (protein, UniProt P35569 1-430, looked up, variant S336A)
chain: MASPPDTDGFSDVRKVGYLRKPKSMHKRFFVLRAASEAGGPARLEYYENEKKWRHKSSAPKRSIPLESCFNINKRADSKNKHLVALYTRDEHFAIAADSEAEQDSWYQALLQLHNRAKAHHDGAGGGCGGSCSGSSGVGEAGEDLSYDTGPGPAFKEVWQVILKPKGLGQTKNLIGIYRLCLTSKTISFVKLNSEAAAVVLQLMNIRRCGHSENFFFIEVGRSAVTGPGEFWMQVDDSVVAQNMHETILEAMRAMSDEFRPRSKSQSSSSCSNPISVPLRRHHLNNPPPSQVGLTRRSRTESITATSPASMVGGKPGSFRVRASSDGEGTMSRPAAVDGSPVSPSTNRTHAHRHRGSSRLHPPLNHSRSIPMPSSRCSPSATSPVSLSSSSTSGHGSTSDCLFPRRSSASVSGSPSDGGFISSDEYGSSP
modifications: Myc tag
notes: PH/PTB-L with Ser336 mutated to Ala
mobility shift following 30 min insulin treatment (CHO-T cells; CHO-T cells): identical mobility-shifts as PH/PTB-L^WT

B3: PH/PTB-L^S407A: PH/PTB-L with Ser407 mutated to Ala (protein, UniProt P35569 1-430, looked up, variant S407A)
chain: B2 chain with A336S, S407A
modifications: Myc tag
notes: PH/PTB-L with Ser407 mutated to Ala
mobility shift following 30 min insulin treatment (CHO-T cells; CHO-T cells): identical mobility-shifts as PH/PTB-L^WT

B4: PH/PTB-L^407/S408A: PH/PTB-L with Ser407 and Ser408 mutated to Ala (protein, UniProt P35569 1-430, looked up, variant S407A S408A)
chain: B2 chain with A336S, S407A, S408A
modifications: Myc tag
notes: PH/PTB-L with Ser407 and Ser408 mutated to Ala
mobility shift following 30 min insulin treatment (CHO-T cells; CHO-T cells): abolished the mobility shift

B5: PH/PTB-L^S408A: PH/PTB-L with Ser408 mutated to Ala (protein, UniProt P35569 1-430, looked up, variant S408A)
chain: B2 chain with A336S, S408A
modifications: Myc tag
notes: PH/PTB-L with Ser408 mutated to Ala
mobility shift following 30 min insulin treatment (CHO-T cells; CHO-T cells): abolished the mobility shift
